The assay concerns the target extracellular domain of HER2 (Homo sapiens, UniProt P04626). Put plainly: SPR. In general terms: In SPR one partner is held on a chip, and binding of the other changes the refractive index at the surface.

B1: parental Fab (meditope-enabled trastuzumab Fab, Ala175) (Fab, V domains shown)
VH: not shown
VL: DIQMTQSPILLSASVGDRVTITCRASQDVNTAVAWYQQRTNGSPRLLIYSASFLYSGVPSRFSGSRSGTDFTLTISSLQPEDEADYYCQQHYTTPPTFGAGTKVEIK
For the molecule B1, the binding result was “binds”.

B2: 175Cys-Fab (meditope-enabled trastuzumab Fab with Ala175 of the heavy chain changed to cysteine) (Fab, V domains shown)
VH: not shown
VL: B1 VL
For B2, the binding result is on record as “binds”.

These data come from paper PMC6823927 (Bioconjugate chemistry, 2018).
